According to patent publication US20200085917A1:

Assays:
[1] = molecular target: Acp6_IPI:IPI00624175.1 (mouse) (UniProt Q8BP40); assay: GST pull-down, LC-MS/MS
[2] = molecular target: Tim23 (endogenous, mouse forebrain mitochondria) (mouse) (UniProt Q9WTQ8); assay: GST pull-down, LC-MS/MS
[3] = molecular target: Sfxn1_IPI:IPI00115454.3 (mouse) (UniProt Q99JR1); assay: GST pull-down, LC-MS/MS
[4] = molecular target: Rdh13_IPI:IPI00229040.1 (mouse) (UniProt Q8CEE7); assay: GST pull-down, LC-MS/MS
Sequence of Rdh13_IPI:IPI00229040.1 (mouse) (Q8CEE7 2-334 limits assumed): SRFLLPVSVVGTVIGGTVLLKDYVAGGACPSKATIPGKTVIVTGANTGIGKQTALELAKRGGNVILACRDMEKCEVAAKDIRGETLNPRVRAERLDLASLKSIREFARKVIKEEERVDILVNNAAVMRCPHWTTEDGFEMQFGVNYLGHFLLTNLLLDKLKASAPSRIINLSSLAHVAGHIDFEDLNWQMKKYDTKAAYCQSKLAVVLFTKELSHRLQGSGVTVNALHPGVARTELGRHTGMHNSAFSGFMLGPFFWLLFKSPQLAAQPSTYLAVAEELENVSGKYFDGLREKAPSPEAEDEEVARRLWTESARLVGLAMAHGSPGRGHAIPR

[5] = molecular target: Brp44_IPI:IPI00131896.1 (mouse) (UniProt Q9D023); assay: GST pull-down, LC-MS/MS
Sequence of Brp44_IPI:IPI00131896.1 (mouse) (Q9D023 whole entry): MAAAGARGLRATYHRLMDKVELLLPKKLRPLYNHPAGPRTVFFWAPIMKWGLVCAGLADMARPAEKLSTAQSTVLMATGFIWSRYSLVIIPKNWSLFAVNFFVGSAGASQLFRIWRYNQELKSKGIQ

[6] = molecular target: Rdh14_IPI:IPI00112377.1 (mouse) (UniProt Q9ERI6); assay: GST pull-down, LC-MS/MS
Sequence of Rdh14_IPI:IPI00112377.1 (mouse) (Q9ERI6 whole entry): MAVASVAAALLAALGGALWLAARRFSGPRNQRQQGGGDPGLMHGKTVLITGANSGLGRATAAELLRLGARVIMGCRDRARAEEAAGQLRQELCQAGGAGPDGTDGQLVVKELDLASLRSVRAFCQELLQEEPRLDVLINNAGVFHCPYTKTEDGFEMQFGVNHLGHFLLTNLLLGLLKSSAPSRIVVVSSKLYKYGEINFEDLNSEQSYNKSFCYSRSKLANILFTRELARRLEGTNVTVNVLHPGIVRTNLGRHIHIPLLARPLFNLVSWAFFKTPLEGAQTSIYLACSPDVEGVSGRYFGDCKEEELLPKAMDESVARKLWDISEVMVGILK

[7] = molecular target: Pnkd_IPI:IPI00187405.4 (mouse) (UniProt Q69ZP3); assay: GST pull-down, LC-MS/MS
Sequence of Pnkd_IPI:IPI00187405.4 (mouse) (Q69ZP3 whole entry): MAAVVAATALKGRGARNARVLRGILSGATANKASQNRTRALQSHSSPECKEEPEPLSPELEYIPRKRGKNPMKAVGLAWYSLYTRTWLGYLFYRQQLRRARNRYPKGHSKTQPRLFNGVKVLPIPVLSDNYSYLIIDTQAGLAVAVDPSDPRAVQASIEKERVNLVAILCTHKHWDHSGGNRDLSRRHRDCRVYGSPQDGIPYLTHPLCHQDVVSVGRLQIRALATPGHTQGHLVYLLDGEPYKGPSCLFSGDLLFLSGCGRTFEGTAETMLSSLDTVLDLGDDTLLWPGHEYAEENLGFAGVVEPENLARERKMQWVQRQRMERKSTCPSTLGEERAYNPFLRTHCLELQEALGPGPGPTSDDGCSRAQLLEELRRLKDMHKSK

[8] = molecular target: Tpi1_IPI:IPI00467833.6 (mouse) (UniProt P17751); assay: GST pull-down, LC-MS/MS
Sequence of Tpi1_IPI:IPI00467833.6 (mouse) (P17751 2-249 limits assumed): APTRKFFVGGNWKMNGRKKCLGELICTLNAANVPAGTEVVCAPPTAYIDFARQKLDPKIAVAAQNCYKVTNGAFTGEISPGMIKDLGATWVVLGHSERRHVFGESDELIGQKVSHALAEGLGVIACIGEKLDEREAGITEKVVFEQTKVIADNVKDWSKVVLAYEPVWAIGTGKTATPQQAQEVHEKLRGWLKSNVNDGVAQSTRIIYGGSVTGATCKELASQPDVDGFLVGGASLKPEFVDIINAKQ

[9] = molecular target: Synj2bp_IPI:IPI00109206.1 (mouse) (UniProt Q9D6K5); assay: GST pull-down, LC-MS/MS
Sequence of Synj2bp_IPI:IPI00109206.1 (mouse) (Q9D6K5 whole entry): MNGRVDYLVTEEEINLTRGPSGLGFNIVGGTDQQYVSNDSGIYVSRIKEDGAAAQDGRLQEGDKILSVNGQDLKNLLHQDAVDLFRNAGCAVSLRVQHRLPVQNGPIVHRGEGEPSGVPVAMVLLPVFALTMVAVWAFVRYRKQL

[10] = molecular target: Tim50 (endogenous, mouse) (mouse) (UniProt Q9D880); assay: GST pull-down, LC-MS/MS
Sequence of Tim50 (endogenous, mouse) (mouse) (Q9D880 22-353 limits assumed): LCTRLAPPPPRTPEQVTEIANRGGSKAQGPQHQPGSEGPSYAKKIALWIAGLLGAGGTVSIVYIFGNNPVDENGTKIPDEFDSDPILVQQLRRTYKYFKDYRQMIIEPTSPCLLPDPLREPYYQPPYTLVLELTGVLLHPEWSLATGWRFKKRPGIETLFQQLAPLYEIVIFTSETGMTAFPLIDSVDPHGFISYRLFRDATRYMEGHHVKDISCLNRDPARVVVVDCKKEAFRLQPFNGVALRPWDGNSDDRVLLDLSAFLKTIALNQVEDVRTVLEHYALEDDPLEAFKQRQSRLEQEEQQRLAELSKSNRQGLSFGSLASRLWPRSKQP

[11] = molecular target: Rab15_IPI:IPI00170032.1 (mouse) (UniProt Q8K386); assay: GST pull-down, LC-MS/MS
Sequence of Rab15_IPI:IPI00170032.1 (mouse) (Q8K386 whole entry): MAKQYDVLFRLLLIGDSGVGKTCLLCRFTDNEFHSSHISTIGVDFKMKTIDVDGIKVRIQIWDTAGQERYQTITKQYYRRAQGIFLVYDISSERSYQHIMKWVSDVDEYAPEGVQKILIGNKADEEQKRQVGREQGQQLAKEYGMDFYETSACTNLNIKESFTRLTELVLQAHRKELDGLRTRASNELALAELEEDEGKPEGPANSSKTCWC

[12] = molecular target: Hmgcl_IPI:IPI00379694.4 (mouse) (UniProt P38060); assay: GST pull-down, LC-MS/MS
[13] = molecular target: Idh3g_IPI:IPI00109169.1 (mouse) (UniProt P70404); assay: GST pull-down, LC-MS/MS
Sequence of Idh3g_IPI:IPI00109169.1 (mouse) (P70404 40-393 limits assumed): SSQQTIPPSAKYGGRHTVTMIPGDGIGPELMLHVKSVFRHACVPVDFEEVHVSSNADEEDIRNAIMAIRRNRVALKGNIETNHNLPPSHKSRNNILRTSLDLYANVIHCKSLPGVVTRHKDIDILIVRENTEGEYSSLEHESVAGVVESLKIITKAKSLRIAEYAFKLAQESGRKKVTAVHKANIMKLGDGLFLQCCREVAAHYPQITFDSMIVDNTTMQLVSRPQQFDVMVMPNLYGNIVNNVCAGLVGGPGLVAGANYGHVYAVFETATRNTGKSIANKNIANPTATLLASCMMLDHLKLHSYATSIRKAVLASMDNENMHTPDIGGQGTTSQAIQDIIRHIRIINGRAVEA

[14] = molecular target: Ywhaq_IPI:IPI00408378.4 (mouse) (UniProt P68254); assay: GST pull-down, LC-MS/MS
Sequence of Ywhaq_IPI:IPI00408378.4 (mouse) (P68254 whole entry): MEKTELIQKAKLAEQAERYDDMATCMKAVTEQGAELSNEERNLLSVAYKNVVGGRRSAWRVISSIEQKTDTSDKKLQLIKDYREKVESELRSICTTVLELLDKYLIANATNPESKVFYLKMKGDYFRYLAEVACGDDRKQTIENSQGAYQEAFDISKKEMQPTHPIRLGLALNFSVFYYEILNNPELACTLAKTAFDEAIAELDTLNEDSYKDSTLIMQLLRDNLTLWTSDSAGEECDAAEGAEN

[15] = molecular target: Gnao1_IPI:IPI00115546.4 (mouse) (UniProt P18872); assay: GST pull-down, LC-MS/MS
Sequence of Gnao1_IPI:IPI00115546.4 (mouse) (P18872 2-354 limits assumed): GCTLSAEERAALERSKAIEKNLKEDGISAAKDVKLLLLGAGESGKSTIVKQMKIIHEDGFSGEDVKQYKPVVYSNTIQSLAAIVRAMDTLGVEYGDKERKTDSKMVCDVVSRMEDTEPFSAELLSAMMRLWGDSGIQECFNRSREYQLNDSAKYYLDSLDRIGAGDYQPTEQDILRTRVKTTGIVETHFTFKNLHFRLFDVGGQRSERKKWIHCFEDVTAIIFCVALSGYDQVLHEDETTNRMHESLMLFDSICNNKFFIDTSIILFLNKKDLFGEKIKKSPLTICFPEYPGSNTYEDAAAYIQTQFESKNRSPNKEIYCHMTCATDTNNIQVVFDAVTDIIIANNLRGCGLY

[16] = molecular target: Chchd4_IPI:IPI00124389.1 (mouse) (UniProt Q8VEA4); assay: GST pull-down, LC-MS/MS
Sequence of Chchd4_IPI:IPI00124389.1 (mouse) (Q8VEA4 whole entry): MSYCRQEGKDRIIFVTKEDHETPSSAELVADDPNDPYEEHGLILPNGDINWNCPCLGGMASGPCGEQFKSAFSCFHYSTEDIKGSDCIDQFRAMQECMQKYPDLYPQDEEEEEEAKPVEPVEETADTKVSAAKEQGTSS

[17] = molecular target: TIM23 complex (mitochondrial inner membrane translocase, mouse forebrain mitochondria) (mouse) (UniProt Q9WTQ8); assay: cell-based or functional assay

Sequence of Sfxn1_IPI:IPI00115454.3 (mouse) (Q99JR1 2-322 limits assumed): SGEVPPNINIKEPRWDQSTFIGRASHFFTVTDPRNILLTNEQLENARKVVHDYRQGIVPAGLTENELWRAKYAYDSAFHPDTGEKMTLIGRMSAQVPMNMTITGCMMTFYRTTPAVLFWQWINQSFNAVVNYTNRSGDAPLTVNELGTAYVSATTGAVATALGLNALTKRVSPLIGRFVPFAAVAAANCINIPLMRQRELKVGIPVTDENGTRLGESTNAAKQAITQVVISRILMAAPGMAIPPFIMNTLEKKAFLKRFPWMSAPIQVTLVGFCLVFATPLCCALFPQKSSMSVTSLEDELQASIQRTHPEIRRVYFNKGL
Sequence of Acp6_IPI:IPI00624175.1 (mouse) (Q8BP40 26-418 limits assumed): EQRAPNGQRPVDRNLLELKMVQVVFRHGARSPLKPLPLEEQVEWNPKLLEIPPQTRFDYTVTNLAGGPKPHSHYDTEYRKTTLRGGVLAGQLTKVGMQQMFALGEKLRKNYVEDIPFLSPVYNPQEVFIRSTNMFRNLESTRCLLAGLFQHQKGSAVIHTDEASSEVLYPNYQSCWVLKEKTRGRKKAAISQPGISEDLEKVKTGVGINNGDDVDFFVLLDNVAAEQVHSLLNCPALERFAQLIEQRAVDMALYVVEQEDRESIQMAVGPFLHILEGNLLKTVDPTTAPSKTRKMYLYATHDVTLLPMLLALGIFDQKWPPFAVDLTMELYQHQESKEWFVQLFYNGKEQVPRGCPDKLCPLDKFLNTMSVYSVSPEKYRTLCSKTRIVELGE
Sequence of Tim23 (endogenous, mouse forebrain mitochondria) (mouse) (Q9WTQ8 whole entry): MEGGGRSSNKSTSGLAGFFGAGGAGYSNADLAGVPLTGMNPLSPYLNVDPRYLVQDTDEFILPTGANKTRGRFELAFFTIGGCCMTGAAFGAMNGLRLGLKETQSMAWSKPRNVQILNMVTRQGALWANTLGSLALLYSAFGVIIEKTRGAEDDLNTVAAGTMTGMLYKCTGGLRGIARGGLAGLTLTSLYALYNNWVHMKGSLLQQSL

Which results are given for “GST-Httex1-97Q (from UniProt P08515 1-218; P42858 1-88)”?
No. of total peptides [1]: 2 peptides; No. of unique peptides [1]: 2 peptides; No. of total peptides [2]: 1 peptides; No. of unique peptides [2]: 1 peptides; No. of total peptides [3]: 2 peptides; No. of unique peptides [3]: 2 peptides; No. of total peptides [4]: 1 peptides; No. of unique peptides [4]: 1 peptides; No. of total peptides [5]: 5 peptides; No. of unique peptides [5]: 5 peptides; No. of total peptides [6]: 1 peptides; No. of unique peptides [6]: 1 peptides; No. of total peptides [7]: 1 peptides; No. of unique peptides [7]: 1 peptides; No. of total peptides [8]: 1 peptides; No. of unique peptides [8]: 1 peptides; No. of total peptides [9]: 1 peptides; No. of unique peptides [9]: 1 peptides; No. of total peptides [10]: 3 peptides; No. of unique peptides [10]: 3 peptides; No. of total peptides [11]: 1 peptides; No. of unique peptides [11]: 1 peptides; No. of total peptides [12]: 1 peptides; No. of unique peptides [12]: 1 peptides; No. of total peptides [13]: 2 peptides; No. of unique peptides [13]: 2 peptides; No. of total peptides [14]: 1 peptides; No. of unique peptides [14]: 1 peptides; No. of total peptides [15]: 3 peptides; No. of unique peptides [15]: 3 peptides; No. of total peptides [16]: 1 peptides; No. of unique peptides [16]: 1 peptides; reduction of pOTC import into wild-type mouse forebrain mitochondria after incubation with 3 µM GST-Httex1-97Q, compared to control GST [17]: 50%; reduction of pOTC import into wild-type mouse forebrain mitochondria after incubation with 10 µM GST-Httex1-97Q, compared to control GST [17]: 73%
